This note sets out measurements from paper PMC6726633, “Different Grp94 components interact transiently with the myocilin olfactomedin domain in vitro to enhance or retard its amyloid aggregation” (Scientific Reports, 2019).

Experiment [1] has as its target T1, Myocilin olfactomedin domain, residues 228-504 (human), Q99972.
T1 chain: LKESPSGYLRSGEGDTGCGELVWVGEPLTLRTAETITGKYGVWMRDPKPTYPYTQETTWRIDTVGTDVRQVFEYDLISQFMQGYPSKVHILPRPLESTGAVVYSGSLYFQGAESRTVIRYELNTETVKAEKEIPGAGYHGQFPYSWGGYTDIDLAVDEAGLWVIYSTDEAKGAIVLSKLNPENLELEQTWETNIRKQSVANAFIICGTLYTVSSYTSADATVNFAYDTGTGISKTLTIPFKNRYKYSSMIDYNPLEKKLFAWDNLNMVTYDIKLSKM
The experiment can be described thus: cross-linking; OLF-only control samples of the BS3(d0/d4) cross-linking experiments, PBS; SDS-PAGE and LC-MS. As to conditions: remark: other sources report otherwise.

The target in experiment [2] is T2, Grp94 N and middle domains, residues 22-594 (human, UniProt P14625 22-594).
T2 construct: Grp94, Homo sapiens, residues 22-594 (STOP codon installed after position 594 on the Grp94FL template); Tag removed with TEV protease; also called Grp94NM; NM; source: E. coli BL21(DE3), purified (HisTrap, SEC, TEV cleavage, SEC); not shown: His6, N-terminal, cleaved
T2 sequence (P14625 22-594): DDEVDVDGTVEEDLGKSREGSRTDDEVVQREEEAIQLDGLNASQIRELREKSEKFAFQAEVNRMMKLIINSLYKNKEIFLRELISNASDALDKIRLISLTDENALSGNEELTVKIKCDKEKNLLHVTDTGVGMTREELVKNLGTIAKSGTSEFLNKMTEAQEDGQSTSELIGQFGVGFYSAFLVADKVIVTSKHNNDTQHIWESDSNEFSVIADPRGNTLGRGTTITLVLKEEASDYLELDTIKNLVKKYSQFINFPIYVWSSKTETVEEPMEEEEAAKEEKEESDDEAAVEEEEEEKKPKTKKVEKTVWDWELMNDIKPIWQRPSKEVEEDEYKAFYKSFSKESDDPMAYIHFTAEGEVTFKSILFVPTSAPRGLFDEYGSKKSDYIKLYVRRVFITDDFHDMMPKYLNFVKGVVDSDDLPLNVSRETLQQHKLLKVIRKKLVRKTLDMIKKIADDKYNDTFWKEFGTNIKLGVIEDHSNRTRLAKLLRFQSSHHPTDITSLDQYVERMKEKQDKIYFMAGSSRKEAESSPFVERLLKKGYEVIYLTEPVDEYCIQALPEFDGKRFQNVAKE
The experiment can be described thus: cross-linking; Grp94N, Grp94NM or Grp94MC:OLF 1:1, OLF 100 μM (dansylated or label-free), PBS, 10 mM BS3(d0/d4) 3 h at 37 °C; SDS-PAGE (Coomassie, dansyl fluorescence), in-gel digestion and LC-MS. As to conditions: both partners purified.

The target in experiment [3] is T3, Grp94 N-terminal nucleotide-binding domain (including Pre-N), residues 22-337 (human, UniProt P14625 22-337).
T3 construct: Grp94, Homo sapiens, residues 22-337 (STOP codon installed after position 337 on the Grp94FL template); Tag removed with TEV protease; also called N domain; source: E. coli BL21(DE3), purified (HisTrap, SEC, TEV cleavage, SEC); not shown: His6, N-terminal, cleaved
T3 sequence (P14625 22-337): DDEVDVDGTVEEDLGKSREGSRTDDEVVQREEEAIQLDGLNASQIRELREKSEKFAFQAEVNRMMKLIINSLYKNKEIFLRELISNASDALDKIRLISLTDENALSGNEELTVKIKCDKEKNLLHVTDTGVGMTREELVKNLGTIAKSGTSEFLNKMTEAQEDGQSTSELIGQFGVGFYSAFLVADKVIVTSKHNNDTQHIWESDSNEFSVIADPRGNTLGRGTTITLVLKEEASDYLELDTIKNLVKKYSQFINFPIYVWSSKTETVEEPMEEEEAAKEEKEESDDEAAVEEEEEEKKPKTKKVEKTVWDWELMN
The experiment can be described thus: co-sedimentation; after the ThT aggregation assay (Grp94 construct 3 μM, OLF 30 μM, PBS, 42 °C, up to 96 h): centrifugation 10 min at 17,000 x g; supernatant, wash and pellet on 12% reducing SDS-PAGE, Coomassie, densitometry; only samples containing OLF gave pellets. As to conditions: both partners purified.

For experiment [4], the target named is T4, Grp94 Pre-N truncation variant, residues 73-804 (canine) (Canis lupus familiaris, UniProt P41148 73-804).
T4 construct: C-terminal 6xHis tag is non-cleavable; not shown: His6, C-terminal, kept
T4 sequence (P41148 73-804, change not shown): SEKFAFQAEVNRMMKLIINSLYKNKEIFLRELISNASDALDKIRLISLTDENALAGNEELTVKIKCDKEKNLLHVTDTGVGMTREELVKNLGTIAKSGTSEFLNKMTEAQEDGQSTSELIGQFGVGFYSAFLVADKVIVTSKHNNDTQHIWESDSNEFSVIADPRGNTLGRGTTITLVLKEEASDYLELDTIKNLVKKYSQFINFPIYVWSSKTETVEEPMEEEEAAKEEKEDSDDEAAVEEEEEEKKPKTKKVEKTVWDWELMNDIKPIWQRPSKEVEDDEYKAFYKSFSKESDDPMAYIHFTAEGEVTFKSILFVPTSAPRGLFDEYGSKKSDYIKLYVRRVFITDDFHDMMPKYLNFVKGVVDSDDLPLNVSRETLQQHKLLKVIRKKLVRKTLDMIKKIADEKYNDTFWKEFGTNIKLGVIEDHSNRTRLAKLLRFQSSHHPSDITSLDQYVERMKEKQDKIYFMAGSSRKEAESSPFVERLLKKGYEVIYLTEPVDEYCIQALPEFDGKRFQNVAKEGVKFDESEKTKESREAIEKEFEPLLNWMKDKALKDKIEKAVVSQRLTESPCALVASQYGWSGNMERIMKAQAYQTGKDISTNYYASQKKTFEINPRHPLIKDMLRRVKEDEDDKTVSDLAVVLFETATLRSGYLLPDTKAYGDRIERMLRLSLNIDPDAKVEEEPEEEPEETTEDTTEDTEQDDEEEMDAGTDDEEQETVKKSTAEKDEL
The experiment is described as above. The note with it: both partners purified.

The target in experiment [5] is T5, Grp94 Pre-N truncation variant, residues 58-804 (canine) (Canis lupus familiaris, UniProt P41148 58-804).
T5 construct: C-terminal 6xHis tag is non-cleavable; not shown: His6, C-terminal, kept
T5 sequence (P41148 58-804, change not shown): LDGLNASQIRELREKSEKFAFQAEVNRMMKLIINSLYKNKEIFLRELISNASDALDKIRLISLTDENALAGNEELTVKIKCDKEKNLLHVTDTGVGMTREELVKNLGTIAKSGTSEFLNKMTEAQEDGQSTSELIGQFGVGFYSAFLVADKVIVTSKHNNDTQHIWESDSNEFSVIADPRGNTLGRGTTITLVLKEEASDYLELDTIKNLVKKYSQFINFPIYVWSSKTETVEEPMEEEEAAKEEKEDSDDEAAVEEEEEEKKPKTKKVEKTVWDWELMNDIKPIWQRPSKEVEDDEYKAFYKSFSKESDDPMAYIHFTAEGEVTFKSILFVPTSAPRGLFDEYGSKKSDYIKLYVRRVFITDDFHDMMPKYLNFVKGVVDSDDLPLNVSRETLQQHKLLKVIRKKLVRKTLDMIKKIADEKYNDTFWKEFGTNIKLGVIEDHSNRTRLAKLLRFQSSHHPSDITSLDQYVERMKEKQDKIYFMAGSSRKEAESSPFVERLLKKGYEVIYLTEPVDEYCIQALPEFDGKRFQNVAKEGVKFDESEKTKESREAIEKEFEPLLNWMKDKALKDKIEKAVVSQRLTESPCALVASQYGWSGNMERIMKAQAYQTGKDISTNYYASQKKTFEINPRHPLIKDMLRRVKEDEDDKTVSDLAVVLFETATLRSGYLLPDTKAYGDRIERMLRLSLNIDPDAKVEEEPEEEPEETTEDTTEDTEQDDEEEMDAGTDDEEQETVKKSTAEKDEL
The description is as above. As to conditions: both partners purified.

B1: Myocilin olfactomedin domain, residues 228-504, Q99972 228-504 (domain or fragment)
chain: LKESPSGYLRSGEGDTGCGELVWVGEPLTLRTAETITGKYGVWMRDPKPTYPYTQETTWRIDTVGTDVRQVFEYDLISQFMQGYPSKVHILPRPLESTGAVVYSGSLYFQGAESRTVIRYELNTETVKAEKEIPGAGYHGQFPYSWGGYTDIDLAVDEAGLWVIYSTDEAKGAIVLSKLNPENLELEQTWETNIRKQSVANAFIICGTLYTVSSYTSADATVNFAYDTGTGISKTLTIPFKNRYKYSSMIDYNPLEKKLFAWDNLNMVTYDIKLSKM
In experiment [1], B1 yielded a stoichiometry N of 2.

B2: Dansylated myocilin olfactomedin domain (domain or fragment, human, UniProt Q99972 228-504, looked up)
chain: LKESPSGYLRSGEGDTGCGELVWVGEPLTLRTAETITGKYGVWMRDPKPTYPYTQETTWRIDTVGTDVRQVFEYDLISQFMQGYPSKVHILPRPLESTGAVVYSGSLYFQGAESRTVIRYELNTETVKAEKEIPGAGYHGQFPYSWGGYTDIDLAVDEAGLWVIYSTDEAKGAIVLSKLNPENLELEQTWETNIRKQSVANAFIICGTLYTVSSYTSADATVNFAYDTGTGISKTLTIPFKNRYKYSSMIDYNPLEKKLFAWDNLNMVTYDIKLSKM
modifications: dansyl (~2 dansyl modifications per OLFd by MS), sites not stated
notes: Myocilin C-terminal olfactomedin (OLF) domain, Homo sapiens, residues 228-504; Same construct as m7, chemically labelled; also called OLFd; dansyl-modified OLF
As for B2, the binding result in experiment [2] is reported as “binds”.

B3: Myocilin olfactomedin domain, residues 228-504 (domain or fragment, human, UniProt Q99972 228-504, looked up)
chain: LKESPSGYLRSGEGDTGCGELVWVGEPLTLRTAETITGKYGVWMRDPKPTYPYTQETTWRIDTVGTDVRQVFEYDLISQFMQGYPSKVHILPRPLESTGAVVYSGSLYFQGAESRTVIRYELNTETVKAEKEIPGAGYHGQFPYSWGGYTDIDLAVDEAGLWVIYSTDEAKGAIVLSKLNPENLELEQTWETNIRKQSVANAFIICGTLYTVSSYTSADATVNFAYDTGTGISKTLTIPFKNRYKYSSMIDYNPLEKKLFAWDNLNMVTYDIKLSKM
notes: Myocilin C-terminal olfactomedin (OLF) domain, Homo sapiens, residues 228-504; The results call S233 the N-terminal residue of the OLF construct, though the methods give residues 228-504 and a cross-link at K229 is reported; also called wild-type OLF
Take B3: the binding result in experiment [3], in experiment [4], in experiment [5] and in experiment [2] was “binds” throughout.

Usually stoichiometry N stands for the number of molecules, sites or subunits per partner or assembly.
